Results reported in IntAct's records for PubMed 20427285.

B1: Protein Z-dependent protease inhibitor (Homo sapiens), Q9UK55 (parent)
chain: MKVVPSLLLSVLLAQVWLVPGLAPSPQSPETPAPQNQTSRVVQAPKEEEEDEQEASEEKASEEEKAWLMASRQQLAKETSNFGFSLLRKISMRHDGNMVFSPFGMSLAMTGLMLGATGPTETQIKRGLHLQALKPTKPGLLPSLFKGLRETLSRNLELGLTQGSFAFIHKDFDVKETFFNLSKRYFDTECVPMNFRNASQAKRLMNHYINKETRGKIPKLFDEINPETKLILVDYILFKGKWLTPFDPVFTEVDTFHLDKYKTIKVPMMYGAGKFASTFDKNFRCHVLKLPYQGNATMLVVLMEKMGDHLALEDYLTTDLVETWLRNMKTRNMEVFFPKFKLDQKYEMHELLRQMGIRRIFSPFADLSELSATGRNLQVSRVLQRTVIEVDERGTEAVAGILSEITAYSMPPVIKVDRPFHFMIYEETSGMLLFLGRVVNPTLL

Assays:
proz_human PROZ, P22891 [1] = variants of: B1; conditions: with proz_human PROZ
fa10_human F10, P00742 = variants of: B1; conditions: with fa10_human F10, P00742
proz_human PROZ, P22891 [2] = variants of: B1; conditions: with proz_human PROZ; remark: listed apart in the source

proz_human PROZ, P22891, sequence (P22891 whole entry): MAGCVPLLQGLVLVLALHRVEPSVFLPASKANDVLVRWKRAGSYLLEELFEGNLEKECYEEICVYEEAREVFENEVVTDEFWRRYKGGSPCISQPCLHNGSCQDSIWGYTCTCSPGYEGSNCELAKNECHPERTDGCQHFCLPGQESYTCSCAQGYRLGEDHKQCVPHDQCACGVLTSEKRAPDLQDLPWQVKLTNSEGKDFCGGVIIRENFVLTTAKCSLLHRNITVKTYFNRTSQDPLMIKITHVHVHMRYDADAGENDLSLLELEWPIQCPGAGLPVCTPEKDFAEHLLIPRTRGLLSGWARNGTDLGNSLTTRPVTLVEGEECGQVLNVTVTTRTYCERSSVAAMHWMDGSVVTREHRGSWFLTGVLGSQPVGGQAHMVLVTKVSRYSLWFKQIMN

Variant | effect of a mutation on the interaction (proz_human PROZ, P22891 [1]) | effect of a mutation on the interaction (fa10_human F10, P00742) | effect of a mutation on the interaction (proz_human PROZ, P22891 [2])
E334A;E404A | with no effect | with no effect | –
E404A | with no effect | with no effect | –
E334A | with no effect | with no effect | –
D95A;D259A;K260A;D314A | – | with no effect | –
Y408R | – | decreasing interaction strength | –
D95A;D259A;K260A;E404A | disrupting interaction strength | – | disrupting interaction strength
